Common to all, as to test: two-hybrid; mammalian two-hybrid in HEK-293 cells; GAL4-ASK1 fragments in pBIND, VP16-Nef in pACT, pG5luc reporter; firefly luciferase/Renilla 48 hrs after transfection, fold over the pACT-pBIND negative control
Assay [1] concerns the target ASK1 (1-1051 aa), GAL4 fusion (UniProt Q99683).
The target of assay [2] is ASK1 (861-1051 aa), GAL4 fusion (UniProt Q99683).
Assay [3] has as its target ASK1 (1-1051 aa), GAL4 fusion (UniProt Q99683). The source holds these as a separate data set.
The target in assay [4] is ASK1 (1-345 aa), GAL4 fusion (UniProt Q99683).
For assay [5], the target named is ASK1 (1-1051 aa), GAL4 fusion (UniProt Q99683). This is another data set of the same source.
Assay [6] concerns the target ASK1 (319-1051 aa), GAL4 fusion (UniProt Q99683).
In assay [7] the target is ASK1 (1-904 aa), GAL4 fusion (UniProt Q99683).
The target in assay [8] is ASK1 (1-1051 aa), GAL4 fusion (UniProt Q99683). This is another data set of the same source.
For assay [9], the target named is ASK1 (1-904 aa), GAL4 fusion (UniProt Q99683). The source holds these as a separate data set.

Like-named read-outs stand apart in the source and are kept apart here.

“HIV-1 Nef (57-174 aa), VP16 fusion (domain or fragment)” came in with a fold increase in luciferase/renilla over pACT-pBIND in assay [1] of 81.7 fold.

Turning to “HIV-1 Nef core domain (57-207 aa), VP16 fusion (domain or fragment)”, the fold increase in luciferase/renilla over pACT-pBIND in assay [1] came out at 153 fold; in assay [2], 2.93 fold; in assay [3], 156 fold; in assay [4], 2.05 fold; in [5], 157 fold; in assay [6], 2.83 fold. The fold increase in luciferase/renilla over pACT-pBIND in assay [7] turned out to be 8.75 fold; in [8], 162 fold; in [9], 9.15 fold.

These data come from article PMC3683068.
